# The nanobody polyreactivity screen of Harvey et al. (2022)
# Assay: yeast display, Sf9 membrane polyspecificity reagent, FACS + sequencing; frameworks hold sequencing errors
# Procedure, shortened: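 Galactose-induced (36–48 hours) yeast carrying a synthetic nanobody display library were exposed to 10% biotinylated, detergent-solubilized Sf9 membrane reagent at 4 °C for 1 hour. FACS followed streptavidin microbead enrichment, using low and high (top ~1%) gates for expression (anti-HA) and reagent binding (streptavidin). Colony PCR, MiSeq 2 × 250 sequencing and CDR-length filtering followed. Labels for polyreactivity reflect the gate of origin.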
row,Sequence,polyreactivity (PSR sort gate)
1,QVQLVESGGGLVQAGGSLRLSCAASGRTFYDNTMGWYRQAPGKERELVAAITRNGGSTYYADSVKGRFTISRDNAKNTVYLQMNSLKPEDTAVYYCAVYVAYLYSYYYWGQGTQVSVSS,low polyreactivity
2,QVQLVESGGGLVQAGGSLRLSCAASGRTFYDYAMGWYRQAPGKERELVAAISSRGGRTYYADSVKGRFTISRDNAKNTVYLQMNSLKPEDSAVYYCAKVVDYNDRDSWGQGTQVTVSS,high polyreactivity
3,QVQLVESGGGLVQAGGSLRLSCAASGRTFYDYDMGWYRQAPGKERELFAAISGGDSTYYADSVKGRFTISRDNAKNTFYLQLKSLKPEDTAVYDCAVTPRGLPYGAYLLYYWGQGTQVTVSS,low polyreactivity
4,QVQLVESGGGLVQAGGSLRLSCAASGRTFYDYDMGWYRQAPGKERELVATIRRDGSTYYADSVKGRFTISRDNAKNTVYLQMNSLKPEDTAVYYCAKDGGYPLDEPEFDYWGQGTQVTVSS,low polyreactivity
5,QVQLVESGGGLVQAGGSLRLSCAASGRTFYEYAMGWYRQAPGKERELVAAITRSGGSTYYADSVKGRFTISRDNAKNTVYLQMNSLKPEDTAVYYCAAYRLQYRVRYYTAYDYWGQGTQVTVSS,high polyreactivity
6,QVQLVESGGGLVQAGGSLRLSCAASGRTFYEYAMGWYRQAPGKESELVASIRSGGSTFYADSVKGRFTISRDNAKYTVYLQMNSLKPEDTAVYYCAAYRVPPYRYRFARVNYWGQGTQVTVSS,high polyreactivity
7,QVQLVESGGGLVQAGGSLRLSCAASGRTFYFNAMGWYRQAPGKERELVAAITNSGGSTYYADSVKGRFTISRDNAKNTVYLQMNSLKPEDTAVYYCAATYKDGYWLVPGYGYWGQGTQVTVSS,low polyreactivity
8,QVQLVESGGGLVQAGGSLRLSCAASGRTFYFNAMGWYRQAPGKERELVATITSDGSTNYADSVKGRFTISRDNAKNTVYLQMNSLKPEDTAVYYCAADYYRDIWPWYPLYNYWGQGTQVTVSS,low polyreactivity
9,QVQLVESGGGLVQAGGSLRLSCAASGRTFYFYPMGWYRQAPGKERELVAAIRSSGGSTNYADSVKGRFTISRDNAKNTVYLQMNSLKPEDTAVYYFAAKRRAKGNYAFYYWGQGTQVTVSS,high polyreactivity
10,QVQLVESGGGLVQAGGSLRLSCAASGRTFYFYTMGWYRQAPGKERELVAAITSGGSTNYADSVKGRFTISRDNAKNTVYLQMNSLKPEDTAVYYCAAAYWRPGVRFFGPYDYWGQGTQVTVSS,high polyreactivity
11,QVQLVESGGGLVQAGGSLRLSCAASGRTFYFYVKGWYRQAPAKERELVARISWSGGSTYYADSVKGRFTISRDNAKNTVYLQMNSLKPEDTAVYYCARQYIYPSSGEYDSWGQGTQVTVSS,low polyreactivity
12,QVQLVESGGGLVQAGGSLRLSCAASGRTFYGNAMGWYRQAPGKERELVAAITTGGGNTYYADSVKGRFTISRDHAKNTVYLQMNRLKPEDTAVYYCAAYERKFYTVSRWYKLDYWGQGTQVTVSS,high polyreactivity
13,QVQLVESGGGLVQAGGSLRLSCAASGRTFYGYAMGWYRQAPGKERELVAGISGRGTRTYYADSVKGRFTISRDNAKNTVYLQMNSLKPEDTAVYYCNAVSIGYYSQSLGLDYWGQGTQVTVSS,high polyreactivity
14,QVQLVESGGGLVQAGGSLRLSCAASGRTFYGYAMGWYRQAPGKERELVASISRDGSTNYADSVKGRFTISRDNAKNTVYLQMYSLKPEDTAVYYCAADIWYYRYPIYYYSYDYWGQGTQVTVSS,low polyreactivity
15,QVQLVESGGGLVQAGGSLRLSCAASGRTFYGYAMGWYRQPPGKERELVATISGSGGTTYYADSVKGRFTISRDNAKNTVYLQMNSLKPEDTAVYYCAADRYLYFYWWPHVGGSPTYGYWGQGTQVTVSS,high polyreactivity
16,QVQLVESGGGLVQAGGSLRLSCAASGRTFYHNAMGWYRQAPGKERELVATINSGGSTYADSVKGRFTISRDNAKNTVYLQMISLKPEDTAVYYCASTFWSRSRFYYRYDYWGQGTQVTVSS,high polyreactivity
17,QVQLVESGGGLVQAGGSLRLSCAASGRTFYHYAMGWYRQAPGKERELVAAITYRGGNTYYADSVKGRFTISRDNAKNTVYLQMNSLKPEDTAVYFCAKQGVRRHYGYDYWGQGTQVTVSS,high polyreactivity
18,QVQLVESGGGLVQAGGSLRLSCAASGRTFYINAMGWYRQAPGKERELVATISRSGGDTYYADSVKGRFTISRDNAKNTVYIEMTSLKPEDTAVYFCNARQYYYRSGAYASRYLYNYWGQGTQVTVSS,high polyreactivity
19,QVQLVESGGGLVQAGGSLRLSCAASGRTFYIYAMGWYRQAPGKERELVAAITSGTSSTYYADSVKGRFTISRDNAKNTVYLQMNSLKPEDTAVYYCAASSTGYGGSTYYYWGQGTQVTVSS,low polyreactivity
20,QVQLVESGGGLVQAGGSLRLSCAASGRTFYIYAMGWYRQAPGKERELVAAITYSSGTTYYADSVKGRFTISRDNAKNTVYLQMNSLKPEDTAVYYCAADVGFNQFDYWGQGTQVTVSS,low polyreactivity

row,Sequence,polyreactivity (PSR sort gate)
1,QVQLVESGGGLVQAGGSLRLSCAASGRTFYKYAMGWYIQAPGKERELVAAISSRGGRTYYADSVKGRFTISRDNAKNTVYLQMNSLKPEDTAVYYCAADYAVEWWGNWYEYWGQGTQVTVSS,high polyreactivity
2,QVQLVESGGGLVQAGGSLRLSCAASGRTFYKYAMGWYRQAPGKERELVAAINRIGGRTYYADSVKGRFTISRDNAKNTVYLQMNSLKPEDTAVYYCAAEFVGDNRHGYWGQGTQVTVSS,high polyreactivity
3,QVQLVESGGGLVQAGGSLRLSCAASGRTFYLNVMGWYRQAPGKEREFVASISTTGGSTYYADSVKGRFTISRDNAKNTVYLQMNSLKPDDTAVYYCAASLRYWARNYWGQGTQVTVSS,high polyreactivity
4,QVQLVESGGGLVQAGGSLRLSCAASGRTFYLYAMGWYRQAPGKERELVAAITWRGGSTYYADSVKGRFTISRDNAKNTVYLQMNSLKPEDTAVYYCSAVTFFYYSAVRYEYYYWGQGTQVTVSS,high polyreactivity
5,QVQLVESGGGLVQAGGSLRLSCAASGRTFYNAMGWYRQAPVKEMELVAAITTGGGTKYADSVKGRFTISRDNAKNTFYLQMNSLKPEDTAVYYCNTDEWYHFYHGAHKYDYWGQGTQVTLSS,low polyreactivity
6,QVQLVESGGGLVQAGGSLRLSCAASGRTFYNYAMGWYRQAPGKEREFVAAITFRTSSTYYADSVKGRFTISRDNAKNTVYLQMNSLKQEDTAVYYCNADRYWGYDYWGQGTQVTVSS,high polyreactivity
7,QVQLVESGGGLVQAGGSLRLSCAASGRTFYNYAMGWYRQAPGKERELVAAISGSGGSTYYADSVKGRFTISRDNAKNTVYLQMNSLKPEDTAVYYCAARKDSYYYRSYDSWGQGTQVTVSS,high polyreactivity
8,QVQLVESGGGLVQAGGSLRLSCAASGRTFYNYAMGWYRQAPGKERELVATINWSGGRTYYADSVKGRFTISRDNAKNTVYLQMNSLKAEDTAVYYCAKTWLYQSNEYGYWGQGTQVTVSS,low polyreactivity
9,QVQLVESGGGLVQAGGSLRLSCAASGRTFYPNAMGWYRQAPGKERELVARITTRGGSTYYADSVKGRFTISRDNAKNTVYLQMNSLKPEATAVYYCAVDYNSDWAYDYWGQGTQVTVSS,high polyreactivity
10,QVQLVESGGGLVQAGGSLRLSCAASGRTFYPYAMGWYRKAPVKERDLVAAISWSGGSTRYADSVKGRFTISRDNAKNTVDLQMNSLKPEDTAVYYCNTQYSWYYPADYDYWGQGTQVTVSS,low polyreactivity
11,QVQLVESGGGLVQAGGSLRLSCAASGRTFYPYAMGWYRQAPGKERELVAAISSGGSTTYADSVKGRFTISRDNAKNTVYLQMNSLKPEDTAVYYCAVYGTERLAFDYWGQGTQVTVSS,low polyreactivity
12,QVQLVESGGGLVQAGGSLRLSCAASGRTFYPYAMGWYRQAPGKERELVASINWSGASTYYADSVKGRFTISRDNAKNTVYLQMNSLKPEDTAVYYCAAYITYLSSRFWYGYWGQGTQVTVSS,high polyreactivity
13,QVQLVESGGGLVQAGGSLRLSCAASGRTFYPYDMGWYRQAPGKERELDAAISRSGGSTYYADSVKGRFTISRDNAKNSVYLQMNSLKPEDTAVYYCAAVYYSYSFVDHYDYWGQGTQVTVSS,low polyreactivity
14,QVQLVESGGGLVQAGGSLRLSCAASGRTFYPYVMGWYRQSPGKERELVASISWSGGSTYYADSVKGRFTFSRDNAKNSVYLQMNSLKPEDTAVYYCAALWPYGYWGQGTQVTVSS,low polyreactivity
15,QVQLVESGGGLVQAGGSLRLSCAASGRTFYQYAMGWYRQAPGKERELVAAISRSGTSTYYADSVKGRFTISRDNAKITVYLQMNSLKPEDTAVYYCATSTGRGYSWGQGTQVTVSS,high polyreactivity
16,QVQLVESGGGLVQAGGSLRLSCAASGRTFYQYAMGWYRQAPGKERELVAAISWSDGSTSYADSVKGRFTISRDNAKNTVYLQMNSLKQEDTAVYYCAKDWTGTKAIEYDYWGQGTQVTVSS,low polyreactivity
17,QVQLVESGGGLVQAGGSLRLSCAASGRTFYQYAMGWYRQAPGKERELVAAITTSGGSTYYADSVKGRFTISRDNAKNTVYLQMNSLKPEDTAVYYCAAPYTGYRERGSYKSDYWGQGTQVTVSS,low polyreactivity
18,QVQLVESGGGLVQAGGSLRLSCAASGRTFYQYTMGWYRQAPGKERELVATISDSTNYADSVKGRFTISRDNAKNTVYLQMNSLKPEDTAVYYCNARVRGLGKYESWGQGTQVTVSS,low polyreactivity
19,QVQLVESGGGLVQAGGSLRLSCAASGRTFYRNAMGWSRQAPGKERELVAAISYRGGRTYYADSVKGRFTISRDNAKNTVYLQMNSLKPEDTAVYYCAADLRTRVPYDYWGQGTQVTVSS,high polyreactivity
20,QVQLVESGGGLVQAGGSLRLSCAASGRTFYRNAMGWYRQAPGKERELVAAIRTRTGSTYYADSVKGRFTISRDNAKNTVYLQRNSLKPEDTAVYYCNASPYVNGRYGSWGQGTQVTVSS,high polyreactivity
